Tested on: beta-catenin

GST-PTPRS D1
tyrosine phosphorylation of immunopurified beta-catenin (Western blot): decreased tyrosine phosphorylation of immunopurified beta-catenin in the presence of GST-PTPRS D1 compared to GST alone

— US20220325261
